According to CN113912709A (SHENZHEN NATIONAL CLINICAL RES CENTER FOR INFECTIOUS …, dated 2022):

B1: VacW-201 (antibody, V domains shown)
VH: EVQLVESGGGLVQPGGSLRLSCAASGFTFSSYWMNWVRQAPGKGLEWVANIKQDGSEKYYVDSVKGRFTISRDNAKNSLYLQMNSLRAEDTAVYYCARMEYPYGGVDYWGQGTLVTVSS
VL: NFMLTQPHSVSESPGKTVTISCTGSSGSIASNYVQWYQQRPGSAPTTVIYEDNQRPSGVPDRFSGSIDSSSNSASLTISGLKTEDEADYYCQSYDSSNRNWVFGGGTKLTVL
B2: VacW-215 (antibody, V domains shown)
VH: EVQLVESGGGLIQPGGSLRLSCAASGFTVSSNYMSWVRQAPGKGLEWVSVIYSGGSTYYADSVKGRFTISRDNSKNTLYLQMNSLRAEDTAVYYCARSTWLRGGFDYWGQGTLVTVSS
VL: NFMLTQPHSVSESPGKTVTISCTGSSGSIASNYVQWYQQRPGSAPTTVIYEDNQRPSGVPDRFSGSIDSSSNSASLTISGLKTEDEADYYCQSYDSSNHFYVFGTGTKVTVL
B3: VacW-212 (antibody, V domains shown)
VH: EVQLVESGGGLVQPGGSLRLSCAASGFTFSSYWMNWVRQAPGKGLEWVANIKQDESEKYYVDSVKGRFTISRDNAKNSLFLQMNSLRVEDTAVYYCARMEYPYGGIDYWGQGTLVTVSA
VL: NFMLTQPHSVSESPGKTVTISCTGSSGSIASNYVQWYQQRPGSAPTTVIYEDNQRPSGVPDRFSGSIDSSSNSASLTISGLKTEDEADYYCQSYDSSNRNWVFGGGTKLTVL
B4: VacW-105 (antibody, V domains shown)
VH: QVQLVQSGAEVKKPGSSVKVSCKASGGTFRSYTISWVRQAPGQGLEWMGRILPILGIANYAQKFQGRVTITADKSTSTAYMELSSLRSEDTAVYYCARVTGAPVESAAWFDPWGQGTLVTVSS
VL: not shown
B5: VacW-138 (antibody, V domains shown)
VH: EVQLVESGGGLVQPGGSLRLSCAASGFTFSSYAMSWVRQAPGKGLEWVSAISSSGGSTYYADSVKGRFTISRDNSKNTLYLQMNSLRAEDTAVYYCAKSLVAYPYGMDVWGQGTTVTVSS
VL: AIQLTQSPFSLSASVGDRVTITCRASQGISSALAWYQQKPGKAPKLLIYDASSLESGVPSRFSGSGSGTDFTLTISSLQPEDFATYFCQQVDTYQFTFGPGTKVDIK
B6: VacW-209 (antibody, V domains shown)
VH: QVQLVESGGGVVQPGRSLRLSCAASGFTFSSIAMHWVRQAPGKGLEWVAVMSFDGSIKYYGDSVKGRFTISRDNSKSTLYLQMNSLRAEDTAVYYCARGVQGYYDRSGYYNLDYNYGMDVWGQGTTVTVSS
VL: QSVLTQPPSVSGAPGQRVTISCTGSSSNIGAGYDVHWYQQLPGTAPKLLIYGNSNRPSGVPDRFSGSKSGTSASLAITGLQAEDEADYYCQSYDSSLSGWVFGGGTKLTVL

biological target: T1, SARS-CoV-2 RBD protein L452R mutant (SARS-CoV-2, UniProt P0DTC2 319-541); assay: SPR, Biacore 8K, RBD on CM5 chip, IgG injected, 1:1 model
T1 construct: domain: RBD

Going from B1 to B2, the Kd falls from 1.57 nM to 0.714 nM (2.2-fold). The second binds more tightly here.

First: B3
Second: B4
The Kd of the first is 3.1-fold lower: 1.2 nM for the first, 3.69 nM for the second. The first binds more tightly here.

First: B5
Second: B6
The Kd of the first is 83-fold higher: 1.96 nM for the first, 0.0237 nM for the second. The second binds more tightly here.
